In the nanobody polyreactivity screen of Harvey et al. (2022):

Assay: yeast display, Sf9 membrane polyspecificity reagent, FACS + sequencing; frameworks hold sequencing errors
Procedure, shortened: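 Nanobodies came from a synthetic yeast display library in Saccharomyces cerevisiae BJ5465, induced with galactose for 36–48 hours and stained for 1 hour at 4 °C with 10% biotinylated, detergent-solubilized Sf9 membrane reagent. Cells were enriched on streptavidin microbeads and then FACS-sorted, with low and high (top ~1%) gates set on anti-HA fluorescence for expression and streptavidin fluorescence for reagent binding. Each polyreactivity label reflects the gate a clone came from. Genes were amplified by colony PCR, sequenced by MiSeq 2 × 250 and filtered by CDR length.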

Sequence	polyreactivity (PSR sort gate)
QVQLVESGGGLVQAGGSLRLSCAASGSIIGIYAMGWYRQAPGKERELVAAISWSGGSTYYADSVKGRFTISRDNAKNTVYLQMNSLKPEDTAVYYCNAYPAYLDDYWGQGTQVTVSS	low polyreactivity
QVQLVESGGGLVQAGGSLRLSCAASGSIIGNYAMGWYREAPGKERELVAAISWSGGSTYYADSVKGRFTISRDNAKNTVYLQMNSLKPEDTAVYYCAAVDYYRYRSDYDYWGQGTQVTVSS	low polyreactivity
QVQLVESGGGLVQAGGSLRLSCAASGSIIGSYAMGWYRQAPGKERELVAAINSGGSTNYADSVKGRFTISRDNAKNTVYLQMNSLKPEDTAVYYCASRQVYKFRRYDYWGQGTQVTVSS	high polyreactivity
QVQLVESGGGLVQAGGSLRLSCAASGSIIGSYAMGWYRQAPGKERELVAAISKSGGSTYYADSVKGRFTISRDNAKNTVYLQMNSLKPEDTAVYYCAARAYRYAYRAYDYWGQGTQVTVSS	high polyreactivity
QVQLVESGGGLVQAGGSLRLSCAASGSIIHPYTMGWYRPAPGKERELVAGISESSDSTYYADSVKGRFTISRDNAKNTVYLQMNSLKPEYTAVYYCNRDHDWPLSVLEVDYWGQGTQVTVSS	low polyreactivity
QVQLVESGGGLVQAGGSLRLSCAASGSIIHTNTMGWYRQAPGKERELVAAISGGSTYYADSVKGRFTISRDNAKNTVYLQMNSLKPEDTAVYYCAAGWSVWYQDFDYWGQGSQVTVSS	high polyreactivity
QVQLVESGGGLVQAGGSLRLSCAASGSIIKYYAMGWYRQAPGKEREFVAAITASSSRTYYADSVKGRFTISRDNAKNKVYLQMNSLKPEDTAVYYCAAVGPGRRRDYWGQGTQVTVSS	high polyreactivity
QVQLVESGGGLVQAGGSLRLSCAASGSIILGYAMGWYRQAPGKERELVAAIRRSSAGTYYADSVKGRFTISRDNAKNTVYLQMISLKPEDTAVYYCAWYPATYRWAYYYWGQGTQVTVSS	high polyreactivity
QVQLVESGGGLVQAGGSLRLSCAASGSIINRYAKGWYRQAPGKERELVAAITQSGGRTYYADSVKGRFTISRDNAKNTVYLQMNSLNPEDTAVYYCNAVRWYLYDYWGQGTQVTVSS	high polyreactivity
QVQLVESGGGLVQAGGSLRLSCAASGSIIPGYTMGWYRQAPGKERELVAAISRRGGSTYYADSVKGRFTISRDNAKNTVYLQMNSLKPEDTAVYYCAASLWYRISKYDYWGQGTQVTVSS	high polyreactivity
QVQLVESGGGLVQAGGSLRLSCAASGSIIPRNVMGWYRQAPGNERELVAAISRSGGSTSYADSVKGRFTISRDNAKNTVYLQMNSLKPEDTAVYYCKAPWQRYSAPWGQGYNYWGQGTQVTVSS	high polyreactivity
QVQLVESGGGLVQAGGSLRLSCAASGSIIPSYSMGWYRQAPGKERDLVATIGRGGTTNYADSVKGRFTISLDNAKNTVYLQMNSLKPEDTAVYYCYAERIWRYKYGYDYWGQGSQVTVSS	high polyreactivity
QVQLVESGGGLVQAGGSLRLSCAASGSIIPVYAMGWDRQAPGKVRQLVAAISSRGGRTYYADSVKGRFKISRDNAKNTVYLQMNSLKPEDTAVYYCASVYATYYRLPSQYDYWGQGTQVTVSS	low polyreactivity
QVQLVESGGGLVQAGGSLRLSCAASGSIIRKYAMGCYRPAPGKERELVAAITSGGRTYYADSVKGRFTISRDNAKNTVYLQMNSLKPEDTAVYYCNARVRGYYEYNYWGQGTQVTVSS	high polyreactivity
QVQLVESGGGLVQAGGSLRLSCAASGSIIRKYAMGWYRQAHGKERELVAAISRRTGNTYYADSVKGRFTISRDNAKNTVYLQMNSLKPEDTAVYYCAADYYSSSSWSEVDSWGQGTQVTVSS	high polyreactivity
QVQLVESGGGLVQAGGSLRLSCAASGSIISFYAMGWYRQAPGKEREMVAVISDIGGSTYYADSVKGRFTISRDNAKNTDYLEMNSLKPEDTAVYYCAAGCHARTWYAYYYWGQGTQVTVSS	low polyreactivity

Sequence	polyreactivity (PSR sort gate)
QVQLVESGGGLVQAGGSLRLSCAASGSIISGNVMGWYRQAPGKEREFVATISWRGGNTYYADSVKGRFTISRDNAKNTVYLQMNSLKPEETAVYDCATRRLYSKSWYYYWGQGTQVTVSS	high polyreactivity
QVQLVESGGGLVQAGGSLRLSCAASGSIISPNAMGWYRQAPGKERELVATISFSGGRTYYADSVKGLVTISRDNAKNTVYLQMNSLKPEDTAVYYCAKAYYYTDMDYWGQGTQVTVSS	low polyreactivity
QVQLVESGGGLVQAGGSLRLSCAASGSIISRNAMGWYRQAPGKEREFVAAITRSGGSTSYADSVKGRFTISRDNAKSTVYLQMNSLKPEDTAVYYCAAAQKYRKEFDSWGQGTQVTVSS	high polyreactivity
QVQLVESGGGLVQAGGSLRLSCAASGSIITDYAMGWYRQAPGKERELVATITDSGGSTYYADSVKGRFTISRDNAKNTVYLQMNSLKPEDTAVYYCAADRIHSVTRYDYDYWGQGTQVTVSS	low polyreactivity
QVQLVESGGGLVQAGGSLRLSCAASGSIITGYAMGWYRQAPGKERELVAAITGNAGSTYYADSVKGRFTISRDNAKNTVYLQMNSLKPEDTAVYYCNARSWYVRGDYWGQGTQVTVSS	low polyreactivity
QVQLVESGGGLVQAGGSLRLSCAASGSIITVNAMGWYRQAPGKEREFVAGITSIGGRTYYADSVMGRFTISRDNAKNTVYLQMYSLKPEDTAVYYCNKRSYRARYDYWGQGTQVTVSS	high polyreactivity
QVQLVESGGGLVQAGGSLRLSCAASGSIITYYAMGGYRQAPGKERELVAGISARGGSTRYADSVKGRFTISRDNAKNTVYLQMNSLKPEDTAVYYCAADSRTNGYDYWGQGTQVTVSS	high polyreactivity
QVQLVESGGGLVQAGGSLRLSCAASGSIIVRYAMGWYRQAPGKDRELVATITFRDTSTYYADSEKGRFTISRDNAKNTVYLQMNSLKPEDTAVYYCAAVRAVLWDIARYDYWGQGSQVTVSS	low polyreactivity
QVQLVESGGGLVQAGGSLRLSCAASGSIIVRYAMGWYRQAPGKERELVATITFRDTSTYYADSVKGRFTISRDNAKNTVYLQMNRLIPEDTAVYYCAAVRADLWDIARYDYWGQGTQVTVSS	low polyreactivity
QVQLVESGGGLVQAGGSLRLSCAASGSIIVWNAMGWYRQAPGKERELVASITSGASTYYADSVKGRFTISRDNAKNTVYLQINSLKPEDTAVYYCAADPWYVAYLLDGYGMDYWGQGTLVTVSS	low polyreactivity
QVQLVESGGGLVQAGGSLRLSCAASGSIIWFYAMGWYRQAPGKEWELVAAISGSDTSTYYADSVKGRFTISRDNAKNTVYLQMNSLKPEDTSVYYCAADDGTTFGYGYWGQGTQVTVSS	low polyreactivity
QVQLVESGGGLVQAGGSLRLSCAASGSIIYIYAMGWYRQAPGKERELVAAISSGDRTNYADSVKGRFTISRDNAKNTVYLQMNSLKPEDTAVYYCAAERKNKYDYWGQGTQVTVSS	high polyreactivity
QVQLVESGGGLVQAGGSLRLSCAASGSIIYLYAMGWYRQAPGKEREFVAAITWRGASTYYADSVKGRFTISRYNAKNTVYLQMNSLKPEDTAVYYCAAKLPRVYGYGFDYWGQGTQVTVSS	low polyreactivity
QVQLVESGGGLVQAGGSLRLSCAASGSIIYSYAMGWYRQAPGKERELVAAISTSAGTTYYADSVKGRFTISRDNAKNTVYLQMNSLKPEDTAVYYCATQVWSHKYWYYYWGQGTQVTVSS	high polyreactivity
QVQLVESGGGLVQAGGSLRLSCAASGSIIYYYAMGWYRQAPGKERELVASITRGGSTYYADSVKGRFTISRDNAKNTVYLQMNSLKPEDTAVYYCNADLGAYVPYDYWGQGTQVTVSS	high polyreactivity
QVQLVESGGGLVQAGGSLRLSCAASGSILAGYAMGWYRQAPGKERELVAAISGGGGSTYYADSVKGRFTISRDNAKNTVYLQMNSLKPEDTAVYYCAAQDTYYGLFSYWIPWSGYWGQGTQVTVSS	high polyreactivity
